In this test the target is Plasmodium falciparum Hsp70-x (PfHsp70-x), full-length construct aa 25-679 (P. falciparum) (UniProt K7NTP5).

For “J-domain of P. falciparum Hsp40 cochaperone PFE0055c (PFE0055cJ), aa 77-148 (domain or fragment)”, the apparent dissociation constant from titrating the cochaperone in ATP hydrolysis assays (5 μM chaperone, single-site binding fit) was determined as 3 µM.

The values above are taken from article PMC6894070, “The Plasmodium falciparum Hsp70-x chaperone assists the heat stress response of the malaria parasite” (The FASEB Journal, 2019).
